Two proteins from PMC11943158 can be followed below.

Read-outs that look alike come from different tables or passages of the source.

One data set in a line: Flag Western blot. As to conditions: glycan lost; control: Gli2-WT. In general terms: In western blotting, separated proteins are transferred to a membrane and probed.
For data set [1] the following is noted: O-GlcNAc at S355.
Data set [2] can be described thus: cycloheximide chase, Flag Western blot. As to conditions: glycan lost.

B1: Gli2: S355A (protein)
parent chain: METSAPAPALEKKEAKSGLLEDSSFPDPGKKACPLAVAAAVAAHGVPQQLLPAFHAPLPIDMRHQEGRYHYDPHSVHSVHGPPTLSGSPVISDISLIRLSPHPAGPGESPFSAHHPYVNPHMEHYLRSVHSSPTLSMISAARGLSPADVAHEHLKERGLFSLAAPGTNPSDYYHQMTLMASHPTPYGDLLMQSGGAASAPHLHDYLNPVDASRFSSPRVTPRLSRKRALSISPLSDASLDLQRMIRTSPNSLVAYINNSRSSSAASGSYGHLSAGALSPAFTFPHPINPVAYQQILSQQRGLGSAFGHTPPLIQPSPTFLAQQPMTLTSISTMPTQLSSSSSNCLNDANQNKQNSESAVSSTVNPITIHKRSKVKTEAEGLRPASPLGLTQEQLADLKEDLDRDDCKQEAEVVIYETNCHWADCTKEYDTQEQLVHHINNEHIHGEKKEFVCRWQACTREQKPFKAQYMLVVHMRRHTGEKPHKCTFEGCSKAYSRLENLKTHLRSHTGEKPYVCEHEGCNKAFSNASDRAKHQNRTHSNEKPYICKIPGCTKRYTDPSSLRKHVKTVHGPDAHVTKKQRNDVHVRAPLLKENGDNEASAEPGGRGPEESVEASSTSHTVEDCLHIKAIKTESSGLCQSSPGAQSSCSSEPSPLGSAPNNDSGMEMPGTGPGSLGDLTALADTCPGADTSALAAPSTGGLQLRKHMSTVHRFEQLKREKLKSLKDSCSWAGPAPHTRNTKLPPLPVNGSVLENFNNTGGGGPAGLLPSQRLPELTEVTMLSQLQERRDSSTSTMSSAYTVSRRSSGISPYFSSRRSSEASPLGGLRPHNASSADSYDPISTDASRRSSEASQCSGGGPGLLNLTPAQQYNLRAKYAAATGGPPPTPLPGLDRVSLRTRLALLDAPERALPGACPHPLGPRRGSDGPTYSHGHGHGYAGAAPAFPHEGPNSSTRRASDPVRRPDPLILPRVQRFHSTHNMNPGSLPPCADRRGLHVQSHPSVDSNLTRNAYSPRPPSINENVVMEAVAAGVDGPGLECDLGLVEDELVLPDDVVQYIKAHTGGTLDDGIRQGYPTEGTGFPENSKLPSPGLQGHRRLAAADSNMGPSAPGLGGCQLSYSPSSNLNKSNMPVQWNEVSSGTVDALPTQVKPPPFPHSNLAVVQQKPAFGQYPGYNPQSVQSSSGGLDSTQPHLQLRGAPSASRGSYTQQPRQPAAGSQCLGMSAAMSPQASYSQAHPQLSPNIVSGSLNQFSPSCSNMAAKPSHLGLPQQMEVVPNATIMNGHQREHGVPNSSLAAVSQPHPVLSYPQQDSYQQGSNLLSSHQPGFMESQQNAGFGLMQPRPPLEPNTASRHRGVRSGQQQLYARTTGQAMVTSANQETAEAMPKGPAGTMVSLAPQPSQDTGRAQDQNTLYYYGQIHMYEQNGGCPAVQPQPPQPQACSDSIQPEPLPSPGVNQVSSTVDSQLLEPPQIDFDAIMDDGDHSSLFSGALSPTLLHNLSQNSSRLTTPRNSLTLPSIPAGISNMAVGDMSSMLTSLAEESKFLNMMT
Take B1: the expression_or_secretion result (in “Flag Western blot”; in data set [1]) was “decreases” each time. In addition, the degradation_or_half_life result in data set [1] and in data set [2] (control: Gli2-WT) was “decreases” each time.

B2: Gli2: OSMI (protein)
parent chain: B1 parent chain
Consider B2, for which the degradation_or_half_life result in data set [1] was “decreases, PM extended half-life from approximately 6 to 24 h; OSMI eliminated this”. For the same protein, in data set [2] (control: PM without OSMI), the “degradation_or_half_life, half_life” value is “decreases”.
